Laboratory results published in article PMC7686362, “Recent evolution of a TET-controlled and DPPA3/STELLA-driven pathway of passive DNA demethylation in mammals” (Nature Communications, 2020).

Key:
[1] = biological target: endogenous UHRF1-GFP (Uhrf1 locus tagged with GFP in mouse ESCs) (mouse (endogenous in J1 ESCs)) (UniProt Q8VDF2)
[2] = biological target: T1, mUHRF1 C-terminally tagged with GFP- and 6xHis-tag (mouse, UniProt Q8VDF2 1-782); assay: MST; 200 nM UHRF1-GFP-6xHis mixed with 0.15 nM to 5 µM GST-DPPA3, 30 min on ice; Monolith NT.115, 80% LED and 80% MST power; settings: both partners purified
T1 construct: UHRF1, mouse (mUHRF1); also called UHRF1-eGFP; recombinant UHRF1-GFP; source: HEK 293T cells, purified (Ni-NTA beads); not shown: GFP, C-terminal, kept
T1 sequence (looked up): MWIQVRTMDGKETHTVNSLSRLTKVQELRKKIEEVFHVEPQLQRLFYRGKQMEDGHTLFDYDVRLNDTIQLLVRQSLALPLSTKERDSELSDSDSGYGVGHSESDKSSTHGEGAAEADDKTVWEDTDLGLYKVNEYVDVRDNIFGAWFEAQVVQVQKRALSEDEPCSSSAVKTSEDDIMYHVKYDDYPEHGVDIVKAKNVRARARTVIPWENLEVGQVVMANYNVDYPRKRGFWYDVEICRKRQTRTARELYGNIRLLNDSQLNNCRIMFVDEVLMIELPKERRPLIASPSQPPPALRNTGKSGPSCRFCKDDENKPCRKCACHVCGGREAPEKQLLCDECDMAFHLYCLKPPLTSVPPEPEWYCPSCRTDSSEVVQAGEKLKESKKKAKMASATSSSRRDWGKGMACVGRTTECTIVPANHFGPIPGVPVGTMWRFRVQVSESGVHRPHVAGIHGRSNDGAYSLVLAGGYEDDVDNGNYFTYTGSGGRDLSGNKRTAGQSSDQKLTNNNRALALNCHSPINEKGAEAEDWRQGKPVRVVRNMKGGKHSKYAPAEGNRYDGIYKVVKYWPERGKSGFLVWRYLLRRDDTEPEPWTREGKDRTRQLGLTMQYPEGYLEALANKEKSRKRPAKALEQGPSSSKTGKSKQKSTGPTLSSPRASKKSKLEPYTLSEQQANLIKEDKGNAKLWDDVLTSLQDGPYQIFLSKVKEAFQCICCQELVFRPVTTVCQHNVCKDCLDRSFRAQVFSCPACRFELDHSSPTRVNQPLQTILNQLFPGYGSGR

DPPA3-KRR-mScarlet (K85E/R85E/R87E as printed) (from UniProt Q8QZY3 1-150) (natural protein)
mobile fraction of UHRF1-GFP by RICS in live ESCs expressing DPPA3-KRR [1]: 32.4%

B1: GST-mDPPA3 wild-type (natural protein, mouse, UniProt Q8QZY3 1-150, looked up)
chain: MEEPSEKVDPMKDPETPQKKDEEDALDDTDVLQPETLVKVMKKLTLNPGVKRSARRRSLRNRIAAVPVENKSEKIRREVQSAFPKRRVRTLLSVLKDPIAKMRRLVRIEQRQKRLEGNEFERDSEPFRCLCTFCHYQRWDPSENAKIGKN
notes: DPPA3, mouse, fragment corresponding to the full-length protein amplified from mouse DPPA3 cDNA, in pGEX4T-3; also called GST-DPPA3 WT; D3^WT; source: E. coli BL21-CodonPlus, purified (Glutathione Sepharose, PD10 desalting)
Kd [2]: 440 nM
